B1: CPEB3 Ribozyme (parent)
chain: GGGGGCCACAGCAGAAGCGUUCACGUCGCGGCCCCUGUCAGAUUCUGGUGAAUCUGCGAAUUCUGCUGU

Variants of: B1
Test: self-cleavage, relative activity (ratio to wild type); higher = more cleavage; co-transcriptional

Row | Variant | self-cleavage
1 | GGGGGCCACAGCAGAAGCGUUCACGCCGCGGCCCCUGUCAGAUUCUGGUGAAUCUGCGAAUUCUACUGU [U26C G65A] | 0.713
2 | GGGGGCCACAGCAGAAGCGUUCACGCCGCGGCCCCUGUCAGAUUCUGGUGAAUCUGCGAAUUCUGCUAU [U26C G68A] | 1.03
3 | GGGGGCCACAGCAGAAGCGUUCACGCCGCGGCCCCUGUCAGAUUCUGGUGAAUCUGCGAAUUCUGCUUU [U26C G68U] | 1.01
4 | GGGGGCCACAGCAGAAGCGUUCACGCCGCGGCCCCUGUCAGAUUCUGGUGAAUCUGCGAAUCCUGCUGU [U26C U62C] | 0.732
5 | GGGGGCCACAGCAGAAGCGUUCACGCCGCGGCCCCUGUCAGAUUCUGGUGAAUCUGCGAAUACUGCUGU [U26C U62A] | 0.832
6 | GGGGGCCACAGCAGAAGCGUUCACGCCGCGGCACCUGUCAGAUUCUGGUGAAUCUGCGAAUUCUGCUGU [U26C C33A] | 0.826
7 | GGGGGCCACAGCAGAAGCGUUCACGCCGCGGCGCCUGUCAGAUUCUGGUGAAUCUGCGAAUUCUGCUGU [U26C C33G] | 0.474
8 | GGGGGCCACAGCAGAAGCGUUCACGCCGCGGCCCCAGUCAGAUUCUGGUGAAUCUGCGAAUUCUGCUGU [U26C U36A] | 0.153
9 | GGGGGCCACAGCAGAAGCGUUCACGCCGCGGCCCCCGUCAGAUUCUGGUGAAUCUGCGAAUUCUGCUGU [U26C U36C] | 0.88
10 | GGGGGCCACAGCAGAAGCGUUCACGCCGCGGCCCCUGUCAGAUUUUGGUGAAUCUGCGAAUUCUGCUGU [U26C C45U] | 0.953
11 | GGGGGCCACAGCAGAAGCGUUCACGCCGCGCCCCCUGUCAGAUUCUGGUGAAUCUGCGAAUUCUGCUGU [U26C G31C] | 0.193
12 | GGGGGCCACAGCAGAAGCGUUCACGCCGCGACCCCUGUCAGAUUCUGGUGAAUCUGCGAAUUCUGCUGU [U26C G31A] | 0.838
13 | GGGGGCCACAGCAGAAGCGUUCACGCCGCGUCCCCUGUCAGAUUCUGGUGAAUCUGCGAAUUCUGCUGU [U26C G31U] | 0.658
14 | GGGGGCCACAGCAGAAGCGUUCACGCCGCGGCCCCUGUCAGAUUCUGGUGAAUCUGCGAAUUCUGAUGU [U26C C66A] | 0.585
15 | GGGGGCCACAGCAGAAGCGUUCACGCCGCGGCCCCUGUCAGAUUCUGGUGAAUCUGCGAAUUCUGGUGU [U26C C66G] | 0.692
16 | GGGGGCCACAGCAGAAGCGUUCACGCCGCGGCCCCUGUCAGAUUCUGAUGAAUCUGCGAAUUCUGCUGU [U26C G48A] | 0.982
17 | GGGGGCCACAGCAGAAGCGUUCACGCCGCGGCCCCUGUCAGAUUCUGCUGAAUCUGCGAAUUCUGCUGU [U26C G48C] | 0.988
18 | GGGGGCCACAGCAGAAGCGUUCACGCCGCGGCCCCUGUCAGAUUCUGGUGAACCUGCGAAUUCUGCUGU [U26C U53C] | 0.882
19 | GGGGGCCACAGCAGAAGCGUUCACGCCGCGGCCCCUGUUAGAUUCUGGUGAAUCUGCGAAUUCUGCUGU [U26C C39U] | 0.85
20 | GGGGGCCACAGCAGAAGCGUUCACGCCGCGGCCCCUGUGAGAUUCUGGUGAAUCUGCGAAUUCUGCUGU [U26C C39G] | 0.939

Row | Variant | self-cleavage
21 | GGGGGCCACAGCAGAAGCGUUCACGCCGCGGGCCCUGUCAGAUUCUGGUGAAUCUGCGAAUUCUGCUGU [U26C C32G] | 0.365
22 | GGGGGCCACAGCAGAAGCGUUCACGCCGCGGCCCCUGUCAGAUUCUGGUGAAUCUGCGAAUUCUGCAGU [U26C U67A] | 1.01
23 | GGGGGCCACAGCAGAAGCGUUCACGCCGCGGCCCCUGUCAGAUUCUGGUGAAUCUGCGAAUUCUGCGGU [U26C U67G] | 0.945
24 | GGGGGCCACAGCAGAAGCGUUCACGCCGCGGCCCCUGUCAGAUUCUGGUGAAUCUGCGAAUUCUGCCGU [U26C U67C] | 0.968
25 | GGGGGCCACAGCAGAAGCGUUCACGCCGCGGCCCCUGUCAGAUUCUGGUGAAUGUGCGAAUUCUGCUGU [U26C C54G] | 0.871
26 | GGGGGCCACAGCAGAAGCGUUCACGCCGCGGCCCCUGUCAGAUUCUGGUGAAUAUGCGAAUUCUGCUGU [U26C C54A] | 0.92
27 | GGGGGCCACAGCAGAAGCGUUCACGCCGCGGCCCCUGUCAGAUUCUGGUGAAUUUGCGAAUUCUGCUGU [U26C C54U] | 1.03
28 | GGGGGCCACAGCAGAAGCGUUCACGCCGCGGCCCCUGUCAUAUUCUGGUGAAUCUGCGAAUUCUGCUGU [U26C G41U] | 0.8
29 | GGGGGCCACAGCAGAAGCGUUCACGCCGCGGCCCCUGUCAAAUUCUGGUGAAUCUGCGAAUUCUGCUGU [U26C G41A] | 0.673
30 | GGGGGCCACAGCAGAAGCGUUCACGCCGCGGCCCCUGUCACAUUCUGGUGAAUCUGCGAAUUCUGCUGU [U26C G41C] | 0.708
31 | GGGGGCCACAGCAGAAGCGUUCACGCCGCGGCCCCUAUCAGAUUCUGGUGAAUCUGCGAAUUCUGCUGU [U26C G37A] | 0.317
32 | GGGGGCCACAGCAGAAGCGUUCACGCCGCGGCCCCUUUCAGAUUCUGGUGAAUCUGCGAAUUCUGCUGU [U26C G37U] | 0.205
33 | GGGGGCCACAGCAGAAGCGUUCACGCCGCGGCCCCUGUCAGAUUCUGGCGAAUCUGCGAAUUCUGCUGU [U26C U49C] | 0.932
34 | GGGGGCCACAGCAGAAGCGUUCACGCCGCGGCCCCUGUCAGAUUCUGGGGAAUCUGCGAAUUCUGCUGU [U26C U49G] | 1.01
35 | GGGGGCCACAGCAGAAGCGUUCACGCCGCGGCCCCUGUCAGAUUCUGGUGAAUCUGCGAAUUAUGCUGU [U26C C63A] | 0.614
36 | GGGGGCCACAGCAGAAGCGUUCACGCCGCGGCCCCUGUCAGAUUCUGGUGAAUCUGCGAAUUUUGCUGU [U26C C63U] | 1
37 | GGGGGCCACAGCAGAAGCGUUCACGCCGCGGCCCCUGUCAGAUUCUGGUGAAUCUGCGAAUUGUGCUGU [U26C C63G] | 0.599
38 | GGGGGCCACAGCAGAAGCGUUCACGCCGCGGCCCCUGUCAGAUUCUGGUGAAUCUGCGAAUUCUGCUGC [U26C U69C] | 1.06
39 | GGGGGCCACAGCAGAAGCGUUCACGCCGCGGCCCCUGUCAGAUUCUGGUGAAUCUGCGAAUUCUGCUGA [U26C U69A] | 1.01
